Results taken from article doi:10.1101/2023.07.24.550319.

Biological target: PP1c^1-293 (potato Protein Phosphatase 1-c isoform-3) (potato)
Assay: ITC

B1: Pi04314 WY-only (domain or fragment)
chain: DLLGLFAKSKLKKMMKSESFKLKRFGEWDDFTVGYIREKLKNKYPDLLLNYLNVYKKAGNEIVR
Kd: 12.2 µM
